Laboratory results taken from the supplement of paper PMC11502859.
Several values for one entry are separate records, joined by “and”; a condition that tells them apart may be missing. Equal entries are not always repeated.

What follows are substances tested on HEK293T (assay: median enrichment of reporter reads in eGFP-reduced (low/intermediate) vs eGFP-high sorted cells (eGFP-extension fusion abundance) (ratio); higher = stronger loss of eGFP-fusion protein abundance (more destabilising extension)).
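Further: lentiviral eGFP-IRES-mCherry reporter pool sorted by FACS 96 h post-transduction, gated on mCherry-high cells, Illumina read counts normalized per million, median across four biological replicates.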

RBP1, sequence (chain, as listed by the source): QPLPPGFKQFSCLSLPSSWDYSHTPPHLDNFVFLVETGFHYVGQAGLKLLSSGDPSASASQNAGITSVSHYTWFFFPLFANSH

Substance	median enrichment
RAKPDGQHRHRHTPQGPTLLSFTVPWHIGERIYPSPGSPGHSVLSKTRMWYQLWKRKVSCQQYLLPSRQPSQVRHLLRSHREP [SPSB4]	7.24
RALLAPAFHALPIPPPPPPPPATEGRPEPPSLPSPLGGRGGHWKGGTPPPQQLRRGFWN [TOMM40]	0.777
RALLERLLCHPFAPERGSSQLS [DNPEP]	9.53
RALVPWQRDEKLQALSPAWAGSGARGCDSSRRVETLGWTGGGQRPAGGAPGMCPDMVNL [VAV1]	1.76
RAMPSLCAVKLSMHYILLAPLQVNAKSQLG [CDC14A]	7.49
RAPAVIIQHDAA [PLXNA1]	5.99
RAPPLTEAAPPTAPNKNVKTNPRT [NDUFA3]	0.588
RAPTLQPQTLCTPRCDAGRGPPPGRTDCRSWEPRHAQASAEGAAGGSARLDPWHLIKKFSLMSMVVGQPSSLSQQAHAASVTS [ZFPM1]	2.21
RAPVGKGGGLRGRGWMPRAPKPPFPFVSKGVRSELRKRASECVSLEGLGALWCYHLETCLMPPCLPMEDRLQELGPCGNLACF [MTA2]	5.52
RAPVWMLLPRLQTTGSFPCPNPRRSFLEGSWALGTCVSCAYHRPRPPWISWIGVGE [TXNRD1]	10.1
RAPWWERL [HTT]	1.54
RAQLLRAQTPA [TNK1]	1.82
RARCPSPS [PTH2]	2.74
RAS [ABCF2]	0.408
RASPAHCQGRRGPDQGPRGLRAPPLSPPQCLRGPEPPPVPAAPLPQGPAMPHPGLKFCKVLRGPEHVSATRGSGQHCVLRLVS [SLC29A4]	8.55
RASSFS [KLHL10]	0.821
RASVGG [MDFI]	9.54
RAWLPACTPPLPPHESPPAGYRGRHAPGASPALGTTCLPAPPGPGPPAAPHFRRGLEQGEAGLWGAVREIYWGPQILL [ECEL1]	4.03
RAWVLTPGRATLSDLKMRILGTGCLSPQQNQNESLKAQDSAFATLPLSWYRRWM [ZNF410]	8.88
RBP1	6.79
RCAGSFLPSVKGQRCADLIFQLTTCFKRKIAHEKCLLAFQSIFEITG [FAM104A]	5.07
RCCCHGGLGQRGERSVLEA [OBSCN]	11.1
RCDQVALGRDPRVFMRHLKLIKELRLELIWCSP [KCNC2]	10.9

Substance	median enrichment
RCFRRLFFSSRSCHLIILH [COMMD10]	7.76
RCKPPYESTVADRRRGGCCSCRSINMCCMSFLLFF [LMO7]	22.4
RCLELCCCQHDLFGA [TPH2]	5.32
RCLPRAVDARAPVHTHTSTLTSPQCCASSTRFYSSQNCILNAQETFKLFMKRCVYREEEGANAVRIMFRL [UBE2QL1]	11.9
RCPCHLPSVHPESSQ [PPFIBP2]	0.445
RCPGDVTDSWQSHGPRLPKSVCWQLFP [S100P]	8.26
RCRVFSSFFLLQEFVVT [MMP16]	3.48
RCTKDLLF [GNA13]	1.38
RCVHSISEETTHRSFFSLF [GIPC2]	8.59
RDALAMAQEKPARKNQTDFHTKEEASIFFFLFFIGVVTKPFRLLLFKI [QRICH1]	33
RDASTGPSLFCPQP [HSPB8]	0.453
RDCACI [CPSF3]	0.439
RDI [ACSM2A]	0.259
RDKVRVFSSYILSQATLQDVAKAYIFP [IPCEF1]	3.59
RDRALRCQGENPSSNPGYLETEKLEF [ITLN2]	0.166
RDSRTKSLCMKLPTMNVMMLYTKVTRQLSLSGFRSVFGTSLSSTYSAHGNYKLYISFPIVFQNVFSTEHA [RUFY2]	8.53
RDSSACPPWGPCCRPGGQSRWERHSQGQGKEGTHTHTHTHTHTHTYILLSLPKPIRQVNGQCLLGPWTHFLLGEAAS [GLP1R]	3.35
RDSSP [CD1C]	0.413
RDVQDL [ZMPSTE24]	0.177
REA [NPSR1]	4.09
READTFFQQ [ADAM12]	0.392
REAGLPVLLPQGPLWLFTNKDPFVK [BCL7C]	6.88
REALHLNLFMS [ERI2]	2.13

Substance	median enrichment
REAMPWSWD [SLN]	0.623
REAWPR [ELOVL1]	0.427
REDAFLFMGFLPWSLSSKCHSGQSFVSVS [NOD1]	33.9
REDHGLSVPQSQLPDG [TBC1D10C]	1.36
REEWGRLRSCGPRPRSLRGCLGDHLDLEAESAILPD [DHRS2]	2.36
REFYRDAEKKERSEAIYAYGSRKR [CHCHD7]	7.02
REGSNGSRELDTVHPNTSPPPGHLEESSARIPRQSSPPAPAVPSCAVLLPHSAPGPCPFIPLKHPLKPLHHFHSQQKVIEHLL [HAUS5]	7
REKGNAQERNTVSPISDLDSTGYMEEI [OR8B8]	0.597
RELHYPFPSQTTN [MDC1]	0.473
RELTCETSA [FOXP2]	0.325
RENQHP [CRYBG3]	0.514
REPKGDWALWQLLSHTVDHSSPSCSLSSSECGW [TRIM66]	12.8
REQ [UNC93A]	5.69
REQQMELWERGEQWGYRESSSALPLGQPHLPAVSPGHFSTSQVEVLQGPAATCIRRTSFSA [SPATA19]	4.52
REQVPAPHTPWRLPLRLHRLLPSIQPGVQVALFRGQMQAVGRTLPVSCVPHRERLWGDGWGMQSLRANKSSSEPASPLNV [KHK]	2.84
RERGLSSSLPAPSSPRPSSLCAW [HOXC10]	4.17
RERTTPSLPSMDGHSSAASSATSCSQPMPGGAAIFSPHHPFTHS [EHMT2]	0.484
RESAGIEQSSPAQVSSLP [ZNF622]	0.239
RESLHLEITTGYASGI [ZNF41]	5.83
RESSCILENTIPDFPQTALHQYNCISSFYIVQ [SCRG1]	13.8
RETPTTPQPHRTNNSLQV [DCSTAMP]	0.265
REVYLKKKSETDTSNPAVTTTPTTYVHMTNNFQVGFS [KCNH1]	4.02
RFHRSAFGHLLWWVLVTHFRLRFDGLNLYSLESMSCVYSTIRNLILFLLLFLQKQKLILKSIIMGWGGGCPQDMQDFCRGQHR [SETD4]	8.11

Substance	median enrichment
RFLVTA [GXYLT1]	2.37
RFPSPLLLLLLDGNHSLDHACSL [TUBG2]	2.18
RFQIWRRPGKPTEVQHVICLKVVLLHHIDDPTTSNMGHSIHFNISIFLYHFCYLSV [ARPC5]	6.81
RGAEGPMGEERRALLGKVGFLDPRDKLFRCHNVEESTWGTTVLVQVGLGKCTSLPLTPRQNPHPSLWILGKVPVPGEYPGPQT [IGHMBP2]	5.61
RGAF [HPX]	0.586
RGAGTCDRLWWHH [NAGA]	1.53
RGAHGQDWWGLQDVRRVRCLALATLFLVGFCCCSCYFHL [PSMC3IP]	7.83
RGALVSPQSSQAAGSPRQLSGHPVPSAPPSAALCSRPAPPSRGCLGLFTCFPSHINTVFPLLSYNSPTAHSPPH [TNFSF12]	8.64
RGASLLSSHSGSSFHPPPSPPPTRGTWWREAGRLFCGIARSSLWCRLVAITCNKAPGKGK [TLE6]	21.9
RGASSSE [SLC1A6]	0.611 and 0.437
RGAV [RELT]	0.538
RGCAPAGSSKDRPARSPSNPTFFWKGGVLQGQAGASSRLLGANPSMYIAFLSCLRAADSQRCARGERCAVGSRA [TNFRSF1A]	10.5
RGCQLGRKRETRP [CCND2]	0.783
RGDAVGLAEPRFSHQQGECWPDTSEDPGLVIICLGGTG [GMPPB]	7.69
RGFRHCIPELL [PPM1M]	1.19
RGGMGFTDMVLIH [GABRG2]	7.24
RGGRTSNLPKRLPCPNPFITPSFRHPQPLLAQKENWGLRVGTQA [TNF]	7.66
RGGRWEPSFQ [OR6Q1]	0.248
RGGSASVPSLTSLGCCFSGVMSPLPLGYLPSTGQGPWWADGN [SFXN3]	21.3
RGHRSEMRGLECGWAPGAMGGCGAGEIKSELLLPGVPTSSSGQSVHSQPDR [BCL2]	1.46
RGIRLPGNSGTVALADHLQHPAS [SLC2A10]	0.279
RGK [PKP2]	0.513
RGKRAPVRRKGRRFRDVGGHPSPSRPCWGHGSGGGDMGPRQTASPTEHLDSNSVPGGAPTPPFSVSSCLFFFIFITKFHSF [ZFP36L2]	5.27

Substance	median enrichment
RGKTTGRPESGPARCSGEFLISSHWGN [BPIFB2]	0.953
RGKTWKRPACLQ [RRM1]	0.421
RGLGWAGARRAAGWPLGGQDGTVGTEVGGRGPSGLN [TNFRSF8]	6.62
RGLLALTLQPTLAVWPSPGSFPAPLPLFPVLLNSPSWRVQALGMGGTRPHSFHRALRPDTADQPHSAQEAASGVGAQRGTAAS [BAP1]	2.63
RGLLPLGPLTLSGWWTTKYNPVYNLKIYFTFVLLYLFIKG [SMAD4]	6.89
RGLRRGLTEP [SLC22A6]	0.442
RGNLQAEEVSAAALLEPGRGLPVSQPGPATQDSWDIPCVTPLRPFGLAPWLSLREVALRLAIYIYNLFT [HK3]	4.11
RGNMCNVLTKVTGTY [PLEKHS1]	1.76
RGPALPPCTSPGAERS [PRMT1]	1.08
RGPASHGPRTMESPLSS [GNB1L]	0.533
RGPEASWVSLGPQKLIKE [PCP2]	0.815
RGPELARPRTPNTIFAIQPQAMGTAFLPRGPGRPQRLLQARTLVHYTPCLGAEILQQKDAIFFVSFFSIFFSKESIFQYVECV [NFYC]	3.94
RGPPGLWGERM [CHRNB4]	1.36
RGPPLAKACGRRWRPSLGRFQGASGKPDGCWWPFPRGLVSGPAQSLLRGRGWRLGSPACLAPPSERAALLSY [ARL6IP4]	10.9
RGPSETVYALTST [KDELR3]	1.55
RGQAAPVLGEGG [DEPDC5]	3.76
RGQWLRGYVVQMLLLP [FILIP1]	8.14
RGRGCPPRPLTPPAAVAAILPLAWGLPSPSQSISPPPSCSGWMWACR [KMT2B]	4.49
RGRLNPPNINSHPSLHSCLPLFTFILRVQKFQVSFELYFVCQFHAYFSFIRES [CNTD1]	5.36
RGRTSALSDRTLRAMLPCHP [MRGPRX3]	6.81
RGSGQECHSQCPDPEIGPIPCLQPCLEAIQ [SLC22A14]	2.88
